{"source": "patent US7709002", "about": "(US Dept. of Health and Human Services, dated 2010)", "key": {"[1]": {"molecular_target": "HLA-A2 (human)", "test": "T2 bioassay (peptide 50 µg/ml + b2m 3 µg/ml, overnight), flow cytometry, stained with pan class I MAb W6/32"}, "[2]": {"molecular_target": "HLA-A2 (human)", "test": "T2 bioassay (peptide 50 µg/ml + b2m 3 µg/ml, overnight), flow cytometry, stained with anti-HLA-A2 MAb"}}, "data": [{"binder": "KLVVVGAGGV (also called ras5-14(G12); normal ras 10-mer)", "note": "[wild-type ras5-14(Gly12) peptide]", "values": [{"measurement": "MFI", "setting": "[1]", "result": 523}, {"measurement": "MFI", "setting": "[2]", "result": 285}]}]}
